Patent US20230365653A1 (MABWELL SHANGHAI BIOSCIENCE, published 2023)

Assays:
[1] = target: recombinant human TGF-β 1 protein (Cat: CA59, Novoprotein Scientific Inc.) (human) (UniProt P01137); experiment: BLI (Octet QKe), binder captured on AHC biosensor, 1:1 fit
[2] = target: T1, human TGF-β 2 (Cat: CJ79, Novoprotein Scientific Inc.) (human) (UniProt P61812); experiment: ELISA, target coated at 1 µg/ml, HRP-anti-human Fc detection
T1 sequence (looked up): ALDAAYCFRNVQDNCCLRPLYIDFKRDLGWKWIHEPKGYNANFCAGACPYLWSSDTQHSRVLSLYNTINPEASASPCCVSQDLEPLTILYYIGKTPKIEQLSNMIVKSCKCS

[3] = target: T2, human TGF-β 3 (Cat: CJ44, Novoprotein Scientific Inc.) (human) (UniProt P10600); experiment: as above
T2 sequence (looked up): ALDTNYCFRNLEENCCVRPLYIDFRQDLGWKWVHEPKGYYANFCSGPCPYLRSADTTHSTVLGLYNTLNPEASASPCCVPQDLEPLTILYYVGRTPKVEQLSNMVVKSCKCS

[4] = target: recombinant human TGF-β 1 protein (Cat: CA59, Novoprotein Scientific Inc.) (human) (UniProt P01137); experiment: as above
[5] = target: T3, recombinant human PD-L1-his protein (Accession No.: NP_054862.1, 19 aa-238 aa) (human, UniProt Q9NZQ7 19-238); experiment: BLI (Octet QKe), binder captured on AHC biosensor, analyte 60 nM, 1:1 fit
T3 construct: range 19-238; also called recombinant human PD-L1 extracellular domain protein; not shown: his tag
T3 sequence (Q9NZQ7 19-238 limits assumed): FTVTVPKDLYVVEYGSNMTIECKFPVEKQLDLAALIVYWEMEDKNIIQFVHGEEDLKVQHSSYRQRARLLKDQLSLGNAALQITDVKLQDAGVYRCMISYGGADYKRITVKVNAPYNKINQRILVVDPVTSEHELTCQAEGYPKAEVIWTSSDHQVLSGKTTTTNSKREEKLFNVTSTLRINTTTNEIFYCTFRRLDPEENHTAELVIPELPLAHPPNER
Excerpt: Antibody affinity was detected by an assay including capturing antibody Fc fragment with anti-human IgG Fc capture (AHC) biosensors on Octet QKe system instrument from Fortebio. […] The binding time was 300 s and the dissociation time was 300 s.

Chain of recombinant human TGF-β 1 protein (Cat: CA59, Novoprotein Scientific Inc.) (human) (P01137 279-390 limits assumed): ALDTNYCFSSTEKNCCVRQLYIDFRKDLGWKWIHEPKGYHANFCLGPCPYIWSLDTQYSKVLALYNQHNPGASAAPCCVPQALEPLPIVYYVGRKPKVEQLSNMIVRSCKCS

Molecule: recombinant protein M7824 (anti-human PD-L1 antibody/TGF-β RII fusion protein control)
- Kd [1]: 2.81 nM
- EC50 [2]: 18.2 nM
- EC50 [3]: 0.981 nM
- EC50 [4]: 0.472 nM

B1: PD-L1 antibody H182-MUT4 (antibody, human IgG1, kappa, V domains shown)
VH: EVQLVQSGAEVKKPGATVKISCKVSGFNIKDIYMHWVQQAPGKGLEWMGRIDPANANTKYDPKFQDRVTITADTSTNTAYMELSSLRSEDTAVYYCASGQLGPLGFDYWGQGTTVTVSS
VL: DIQMTQSPSSLSASVGDRVTITCRASQDISNYLNWYQQKPGKAPKLLLYYTSRLHSGVPSRFSGSGSGTDYTLTISSLQPEDFATYFCQQGAGRPYTFGGGTKVEIKR
notes: 25-30 for the anti-human PD-L1 antibody without naming H182-MUT4; also called MW22
- Kd [5]: 0.433 nM
